Test results taken from FireProtDB (doi:10.1021/bi027116n).
Several values for one entry are separate records, joined by “and”; a condition that tells them apart may be missing. Identical values can stand only once.

Conditions: Spinacia oleracea, reversible: no; for denaturant midpoint (higher = more stable): 20 °C, GdnHCl; for Tm: Thermal

Ferredoxin-1, chloroplastic wild type, P00221, sequence (P00221 whole entry): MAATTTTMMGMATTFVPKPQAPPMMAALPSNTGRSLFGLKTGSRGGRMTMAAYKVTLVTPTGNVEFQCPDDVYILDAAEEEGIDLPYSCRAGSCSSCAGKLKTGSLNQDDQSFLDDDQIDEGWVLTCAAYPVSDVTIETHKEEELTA

Substance: Ferredoxin-1, chloroplastic wild type, P00221
- denaturant midpoint (higher = more stable) (pH 7, Absorbance, phosphate): 2.1 M and 1.7 M and 1.5 M
- denaturant midpoint (higher = more stable) (pH 7, CD, phosphate): 2.1 M and 1.6 M
- denaturant midpoint (higher = more stable) (pH 7, Emission, phosphate): 1.6 M
- Tm (pH 7, Absorbance, Phosphate): 70 °C
- denaturant midpoint (higher = more stable) (pH 10, Absorbance, Glycine-OH): 3 M and 1.5 M
- denaturant midpoint (higher = more stable) (pH 10, CD, Glycine-OH): 1.6 M
- denaturant midpoint (higher = more stable) (pH 10, Emission, Glycine-OH): 1.6 M
- Tm (pH 10, Absorbance, Glycine-OH): 53 °C
